Reference: patent publication US9938354B2, “Lin28-mediated control of let-7 biogenesis” (Children's Medical Center Corporation, priority 2011, dated 2018)
One block for each molecule: values may come before it.

Assays:
[1] = target: T1, TUTase (Homo sapiens, UniProt Q5TAX3); assay: In vitro TUTase activity (uridylation) assay; assay type: biochemical; conditions: chain terminator; prevents oligo-U tail elongation
T1 construct: Flag; made in house; host or cells: HEK293 / HEK293T cells (transient transfection, anti-Flag M2 purification)
T1 sequence (Q5TAX3 whole entry): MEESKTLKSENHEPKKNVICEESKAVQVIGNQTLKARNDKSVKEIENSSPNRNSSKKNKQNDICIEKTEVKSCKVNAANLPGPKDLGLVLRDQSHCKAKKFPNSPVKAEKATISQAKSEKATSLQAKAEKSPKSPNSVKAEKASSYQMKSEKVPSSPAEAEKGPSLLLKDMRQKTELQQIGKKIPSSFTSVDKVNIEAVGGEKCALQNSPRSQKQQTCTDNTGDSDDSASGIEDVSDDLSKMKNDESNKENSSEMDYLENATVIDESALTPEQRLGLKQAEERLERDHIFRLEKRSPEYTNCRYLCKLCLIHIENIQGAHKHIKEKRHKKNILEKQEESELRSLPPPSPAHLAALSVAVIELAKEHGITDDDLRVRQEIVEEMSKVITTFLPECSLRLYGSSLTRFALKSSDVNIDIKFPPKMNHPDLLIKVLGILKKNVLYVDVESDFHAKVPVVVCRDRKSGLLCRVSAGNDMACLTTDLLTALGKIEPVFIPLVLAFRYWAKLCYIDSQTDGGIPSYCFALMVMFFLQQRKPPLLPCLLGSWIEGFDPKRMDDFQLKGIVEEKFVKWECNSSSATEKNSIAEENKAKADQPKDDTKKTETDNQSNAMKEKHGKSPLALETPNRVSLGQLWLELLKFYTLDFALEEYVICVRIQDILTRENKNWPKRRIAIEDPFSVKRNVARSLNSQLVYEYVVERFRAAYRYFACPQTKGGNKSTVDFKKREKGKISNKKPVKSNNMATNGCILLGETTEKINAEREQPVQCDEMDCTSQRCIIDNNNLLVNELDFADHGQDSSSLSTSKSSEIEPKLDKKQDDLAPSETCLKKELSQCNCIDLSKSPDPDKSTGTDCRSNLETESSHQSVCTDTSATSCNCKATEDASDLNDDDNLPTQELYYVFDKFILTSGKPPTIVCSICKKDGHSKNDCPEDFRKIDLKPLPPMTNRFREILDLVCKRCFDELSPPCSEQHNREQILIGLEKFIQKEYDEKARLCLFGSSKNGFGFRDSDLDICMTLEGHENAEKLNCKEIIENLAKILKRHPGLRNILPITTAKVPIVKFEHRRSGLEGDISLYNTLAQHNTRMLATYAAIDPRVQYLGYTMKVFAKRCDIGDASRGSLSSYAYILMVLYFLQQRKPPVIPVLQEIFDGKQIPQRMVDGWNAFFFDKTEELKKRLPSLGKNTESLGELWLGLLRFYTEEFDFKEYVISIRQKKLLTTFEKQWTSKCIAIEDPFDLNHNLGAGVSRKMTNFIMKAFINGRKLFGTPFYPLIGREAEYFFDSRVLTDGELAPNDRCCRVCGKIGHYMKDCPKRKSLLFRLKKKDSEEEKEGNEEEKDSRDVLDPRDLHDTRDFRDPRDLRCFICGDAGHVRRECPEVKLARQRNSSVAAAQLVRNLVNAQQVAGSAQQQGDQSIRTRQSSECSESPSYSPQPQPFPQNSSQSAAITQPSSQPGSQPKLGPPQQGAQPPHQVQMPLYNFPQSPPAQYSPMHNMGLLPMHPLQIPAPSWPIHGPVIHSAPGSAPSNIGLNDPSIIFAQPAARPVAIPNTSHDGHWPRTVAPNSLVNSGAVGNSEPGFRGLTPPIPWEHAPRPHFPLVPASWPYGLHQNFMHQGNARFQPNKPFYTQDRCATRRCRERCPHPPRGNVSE
Description: In vitro TUTase assays can be employed also. Some of the hit compounds may influence Lin28A-TUTase activity independent of altered expression levels. […] For in vitro uridylation assays, synthetic pre-let-7 RNA is incubated with the affinity-purified proteins in the presence of [α-^32P]-UTP.
A pilot screen is performed on the in vitro assay, using a chemical library that contains a collection of nucleotide analogs. The catalytic activity of the TUTase is inhibited by certain nucleotide analogs, and that the identification of these compounds through HTS will lead to their utility as a novel chemotherapeutic in Lin28A-expressing cancers. There are readily available libraries of such compounds; similar compounds have already been applied in the clinic. […] Then, putative hits from this primary screen are evaluated through secondary screens that include dose curves, in vitro TUTase activity assays, and analyses of let-7 expression by q.RT-PCR on compound-treated cells. […]
Purified proteins were incubated with 4 pmol of unlabelled synthetic RNA (Dharmacon) for 1 hour at 37° C. in a 30 μl reaction mixture containing 100 mM KCl, 20 mM Tris-HCl pH 7.6, 10% Glycerol, 125 nM [α-^32P]UTP, 3.2 mM MgCl2, 40 U RNasin ribonuclease inhibitor (Promega). Products were resolved on 15% denaturing polyacrylamide gels and bands were detected by autoradiography.

[2] = target: pre-let-7g; assay: EMSA of recombinant Lin28A and Lin28B with pre-let-7g; assay type: binding; conditions: 0.5 nM 5′-end labeled pre-let-7g, without competitor yeast tRNA, estimated, read-out: apparent Kd
Description: (§1) Furthermore, Lin28B directly binds and sequesters pri-let-7. To further dissect the mechanism of the Lin28B-mediated let-7 processing block, the relative abilities of recombinant human Lin28A and Lin28B proteins to bind pre-let-7 were compared. (FIG. 7A, 7B and FIG. 8). EMSA was performed with pre-let-7g to analyze the relative binding affinities of the two recombinant proteins. Lin28A and Lin28B have apparent Kds of approximately 0.6 nM and 0.5 nM, respectively (FIG. 7B). Both these estimated Kds are much lower than a previously reported for recombinant mouse Lin28A. This difference is likely due to the omission here of nonspecific yeast tRNA competitor used previously in the binding buffer. Piskounova et al., 2008. […] Collectively, these assays reveal that both Lin28 proteins can directly bind to let-7 precursors with high-affinity in vitro.
(§2) Transformed BL21-CodonPlus® Competent bacteria (Stratagene) were grown to an OD600 nm of 0.4-0.6. […] Band intensities of scanned gels were quantified using ImageJ software and used to calculate percentage of probe bound. […] […] Percent active protein was determined using stoichiometric binding reactions as described in Ryder et al. (2008) Hills equation for specific binding with one site, Y=Bmax*X^h= […]

[3] = tested on: pri-let-7g; assay: EMSA of recombinant Lin28A and Lin28B with pri-let-7g; assay type: binding; conditions: in vitro transcribed uniformly labeled pri-let-7g
Description: as §1, §2

Molecule: O=c1ccn([C@H]2CC[C@@H](COP(=O)(O)OP(=O)(O)OP(=O)(O)O)O2)c(=O)[nH]1 [2′,3′-dideoxy-UTP]
TUTase activity in vitro [1]: effectively inhibits TUTase activity in vitro

Kd [2]: ~0.6 nM
B1: Lin28A: purified recombinant human His-tagged Lin28A RNA-binding protein (protein, UniProt Q9H9Z2 2-209, looked up)
Protein lin-28 homolog A: GSVSNQQFAGGCAKAAEEAPEEAPEDAARAADEPQLLHGAGICKWFNVRMGFGFLSMTARAGVALDPPVDVFVHQSKLHMEGFRSLKEGEAVEFTFKKSAKGLESIRVTGPGGVFCIGSERRPKGKSMQKRRSKGDRCYNCGGLDHHAKECKLPPQPKKCHFCQSISHMVASCPLKAQQGPSAQGKPTYFREEEEEIHSPTLLPEAQN
modifications: His tag
binding to pri-let-7g [3]: able to bind pri-let-7g with similar affinities

Kd [2]: ~0.5 nM
B2: Lin28B: purified recombinant human His-tagged Lin28B RNA-binding protein (protein)
chain: MAEGGASKGGGEEPGKLPEPAEEESQVLRGTGHCKWFNVRMGFGFISMINREGSPLDIPVDVFVHQSKLFMEGFRSLKEGEPVEFTFKKSSKGLESIRVTGPGGSPCLGSERRPKGKTLQKRKPKGDRCYNCGGLDHHAKECSLPPQPKKCHYCQSIMHMVANCPHKNVAQPPASSQGRQEAESQPCTSTLPREVGGGHGCTSPPFPQEARAEISERSGRSPQEASSTKSSIAPEEQSKKGPSVQKRKKT
modifications: left off: small tags and cut ends
binding to pri-let-7g [3]: able to bind pri-let-7g with similar affinities
